Where no end group is shown, it is not given here. Me3 = trimethyl (trimethylated lysine, Kme3)
Key:
Test in all cases: ITC; H3K4me3 peptide (380 uM) titrated to KDM5A PHD3 fingers (28 uM); for AUX WT-KDM5A 190 uM peptide and 21 uM protein; 20 mM TRIS-HCl pH 7.5, 50 mM NaCl, 1 mM DTT; 19 injections; one set of sites model; 7-9 repeats (AUX WT in replicate)
[1] = target: wild-type KDM5A PHD3 finger expressed in the auxotrophic E. coli Castellani and Chalmers strain (Homo sapiens) (UniProt P29375)
[2] = target: KDM5A PHD3 finger with 5-fluorotryptophan at Trp18 and Trp28 (Homo sapiens) (UniProt P29375)
[3] = target: KDM5A PHD3 finger with 6-fluorotryptophan at Trp18 and Trp28 (Homo sapiens) (UniProt P29375)
[4] = target: KDM5A PHD3 finger with 5,6-difluorotryptophan at Trp18 and Trp28 (Homo sapiens) (UniProt P29375)
[5] = target: wild-type KDM5A PHD3 finger expressed in E. coli Rosetta BL21 (DE3)pLysS (Homo sapiens) (UniProt P29375)

B1: H3K4me3 histone peptide (ARTKme3QTARKS) (peptide)
peptide: ARTK(Me3)QTARKS
**Q.** B1 was tested. Which Kd [1] did it give?
**A.** 48 nM

**Q.** What about the dH [1] of the same binder?
**A.** -11.9 kcal/mol

**Q.** And the Kd [2]?
**A.** 49 nM

**Q.** What about the dH [2] of the same binder?
**A.** -10.9 kcal/mol

**Q.** What about the Kd [3] of the same binder?
**A.** 57 nM

**Q.** And the dH [3]?
**A.** -12.1 kcal/mol

**Q.** And the Kd [4]?
**A.** 70 nM

**Q.** What about the dH [4] of the same binder?
**A.** -11.7 kcal/mol

**Q.** What about the Kd [5] of the same binder?
**A.** 54 nM

**Q.** What about the dH [5] of the same binder?
**A.** -11.6 kcal/mol

From article PMC9814790
